Laboratory results taken from publication PMC10397247.

Key:
Test in all cases: two-hybrid library CCNG1;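 also: natural log of median RNA to DNA barcode read ratio; higher means stronger binding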
4H3855-bA = target: T1, 4H3855-bA
T1 chain: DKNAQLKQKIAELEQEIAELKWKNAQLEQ

4H3782-bA = target: T2, 4H3782-bA
T2 chain: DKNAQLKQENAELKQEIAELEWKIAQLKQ

4H1446-bA = target: T3, 4H1446-bA
T3 chain: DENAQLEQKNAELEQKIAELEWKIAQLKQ

4H3843-bA = target: T4, 4H3843-bA
T4 chain: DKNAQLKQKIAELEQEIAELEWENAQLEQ

4H331-bA = target: T5, 4H331-bA
T5 chain: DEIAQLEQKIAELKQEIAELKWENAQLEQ

4H3189-bA = target: T6, 4H3189-bA
T6 chain: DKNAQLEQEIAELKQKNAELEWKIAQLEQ

4H72-bA = target: T7, 4H72-bA
T7 chain: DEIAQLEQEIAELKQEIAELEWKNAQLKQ

4H687-bA = target: T8, 4H687-bA
T8 chain: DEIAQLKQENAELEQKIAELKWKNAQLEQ

4H1845-bA = target: T9, 4H1845-bA
T9 chain: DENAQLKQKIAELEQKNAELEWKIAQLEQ

4H918-bA = target: T10, 4H918-bA
T10 chain: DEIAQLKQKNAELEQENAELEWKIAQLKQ

4H3606-bA = target: T11, 4H3606-bA
T11 chain: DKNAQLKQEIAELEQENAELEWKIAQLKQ

4H2576-bA = target: T12, 4H2576-bA
T12 chain: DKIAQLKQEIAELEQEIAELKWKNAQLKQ

4H570-bN = target: T13, 4H570-bN
T13 chain: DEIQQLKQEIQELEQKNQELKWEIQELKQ

4H797-bA = target: T14, 4H797-bA
T14 chain: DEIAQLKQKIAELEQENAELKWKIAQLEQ

4H4001-bA = target: T15, 4H4001-bA
T15 chain: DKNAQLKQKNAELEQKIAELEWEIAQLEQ

4H2667-bA = target: T16, 4H2667-bA
T16 chain: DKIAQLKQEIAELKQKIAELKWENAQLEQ

4H953-bA = target: T17, 4H953-bA
T17 chain: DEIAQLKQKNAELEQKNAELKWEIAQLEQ

4H883-bA = target: T18, 4H883-bA
T18 chain: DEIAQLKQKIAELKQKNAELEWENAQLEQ

4H1369-bA = target: T19, 4H1369-bA
T19 chain: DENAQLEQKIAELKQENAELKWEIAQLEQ

4H568-bA = target: T20, 4H568-bA
T20 chain: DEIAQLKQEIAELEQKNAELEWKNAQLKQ

4H607-bA = target: T21, 4H607-bA
T21 chain: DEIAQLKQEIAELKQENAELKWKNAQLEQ

4H370-bA = target: T22, 4H370-bA
T22 chain: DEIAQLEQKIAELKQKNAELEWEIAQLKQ

4H462-bA = target: T23, 4H462-bA
T23 chain: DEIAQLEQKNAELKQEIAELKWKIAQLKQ

4H2610-bA = target: T24, 4H2610-bA
T24 chain: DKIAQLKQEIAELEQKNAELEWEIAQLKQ

4H967-bA = target: T25, 4H967-bA
T25 chain: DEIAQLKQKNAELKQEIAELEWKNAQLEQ

4H2697-bA = target: T26, 4H2697-bA
T26 chain: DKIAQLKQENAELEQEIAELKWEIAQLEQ

interaction score (4H3855-bA): -1.08
interaction score (4H3782-bA): -0.939
interaction score (4H1446-bA): -0.956
interaction score (4H3843-bA): -0.634
interaction score (4H331-bA): -0.963
interaction score (4H3189-bA): -0.843
interaction score (4H72-bA): -1.2
interaction score (4H687-bA): -0.0949
interaction score (4H1845-bA): -1.43
interaction score (4H918-bA): -1.28
interaction score (4H3606-bA): 2.35
interaction score (4H2576-bA): -0.209
interaction score (4H570-bN): 0.413
interaction score (4H797-bA): -0.836
interaction score (4H4001-bA): -0.513
interaction score (4H2667-bA): -0.912
interaction score (4H953-bA): -1.23
interaction score (4H883-bA): -1.53
interaction score (4H1369-bA): -0.294
interaction score (4H568-bA): -1.77
interaction score (4H607-bA): -1.2
interaction score (4H370-bA): -1.03
interaction score (4H462-bA): -0.339
interaction score (4H2610-bA): -0.708
interaction score (4H967-bA): -1.41
interaction score (4H2697-bA): -0.782
B1: 4H1369-bA (peptide)
chain: DENAQLEQKIAELKQENAELKWEIAQLEQ
